Measurements reported in article PMC3594340 (Journal of the American Society for Mass Spectrometry, 2013).

Target: the molecule itself
Experiment: cross-linking

B1: SO_2176 from Shewanella oneidensis (natural protein)
chain: MAIQSKYSNTQVESLIAEILVVLEKHKAPTDLSLMALGNCVTHLLERKVPSESRQAVAEQFAKALAQSVKSN
  binding result: binds
